# Assay results taken from the supplement of paper PMC7125110.
# ± gives the standard error. This sample holds only a part of the variants without activity.
# B1: glmS ribozyme (parent)
# chain: AUAAAAGCGCCAGAACUACAGAAAUGUAGUUGACGAGGAGGAGGUUUAUCGAAUUUUCGGCGGAUGCCUCCAAA
# Key:
# Conditions in all cases: with glucosamine-6-phosphate
# glucosamine-6-phosphate [1] = variants of: B1; assay: self-cleavage kobs at 160 uM GlcN6P; higher = faster cleavage; RNA array
# How it was run: (§1)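 Barcoded ribozyme variants on sequenced MiSeq chips were transcribed in situ by E. coli RNA polymerase and followed at 37 °C through a hybridised Cy3 probe. Glucosamine-6-phosphate at 40 μM to 10 mM in HEPES/KCl/Mg(OAc)2 buffer was flowed in, and tiles were imaged over ~14 h. Signals were normalised to baseline and to non-cleaving reference variants, and per-tile medians were fit to one- or two-exponential decays to give kobs. Weighted Michaelis–Menten fits across concentrations gave kcat and KM.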
# glucosamine-6-phosphate [2] = variants of: B1; assay: self-cleavage kobs at 640 uM GlcN6P; higher = faster cleavage; RNA array
# How it was run: as §1
# glucosamine-6-phosphate [3] = variants of: B1; assay: self-cleavage kobs at 2500 uM GlcN6P; higher = faster cleavage; RNA array
# How it was run: as §1
# glucosamine-6-phosphate [4] = variants of: B1; assay: self-cleavage kobs at 10000 uM GlcN6P; higher = faster cleavage; RNA array
# How it was run: as §1
Variant,self-cleavage kobs at 160 uM GlcN6P (glucosamine-6-phosphate [1]) [s⁻¹],self-cleavage kobs at 640 uM GlcN6P (glucosamine-6-phosphate [2]) [s⁻¹],self-cleavage kobs at 2500 uM GlcN6P (glucosamine-6-phosphate [3]) [s⁻¹],self-cleavage kobs at 10000 uM GlcN6P (glucosamine-6-phosphate [4]) [s⁻¹]
AUAAAAGCGCCAGAAGUACAGAAAUGUAGUUGACGAAGAGGAGGUUUUCCGAAUUUUCGGCGGAUGCCUCCAAA [C16G G37A A48U U49C],< 1e-05,–,–,–
AUAAAAGCGCCAGAAUUACAGAAAUGUAGUUGACGAGUAGGAGGUUUAUCGAACUUUCGGCGGAUUCCUCAAAA [C16U G38U U54C G66U C71A],< 1e-05,< 1e-05,–,–
AUAAAAGCGCCAGAAGUACAGAAAUGUAGUUGACGAGGCGGAGGCUUCUCGAAUUUUCGGCGGAUGCCUCCAAA [C16G A39C U45C A48C],< 1e-05,< 1e-05,–,–
AUAAAAGCGCCAGAAUUACAGAAAUGUACUUGACGAGGAGGAGGUUUAUGGAAUUUUCGGCGGAUGCCUCCAAA [C16U G29C C50G],0.000111 ± 3.4e-05,–,6.6e-05 ± 2.7e-05,–
AUAAAAGCGCCAGAAGUACAGAAAUGUAGAUGACGAGGAGGAGGUUUAUCGAAUUUUUAUCGGAUGGCUCCAAA [C16G U30A C58U G59A G60U C67G],< 1e-05,–,–,–
AUAAAAGCGCCAGAAGUACAGAAAUGUACUUGACGAGGAGGAGGUUUAUCGAAUUUUCGGCGGAUGCCUCGAAA [C16G G29C C71G],9.16e-05 ± 1.5e-05,–,–,–
AUAAAAGCGCCAGAAGUACAGAAAUGUAGUUGACGAGGGGGAGGUUUGUCGAAUUUUGGGCGGUUGCCUCCAAA [C16G A39G A48G C58G A64U],< 1e-05,< 1e-05,–,–
AUAAAAGCGCCAGAUCUACAGAAAUGUAGUUGACGAGGAGGAGGUUUAUAGAAUUUUCGGCGGUUGCCUCUAAA [A15U C50A A64U C71U],< 1e-05,–,–,–
AUAAAAGCGCCAGAAUUACAGAAAUGUAGUUGACGAGGAGGAGGUUUAUCCAAUUUUCGGCGGAUGCCUCCAAA [C16U G51C],< 1e-05,< 1e-05,< 1e-05,–
AUAAAAGCGCCAGAAAUACAGAAAUGUAGUUGACGAGGAGGAGGUUUAUGGAAUCUUCGGCGCAUGCCUGCAAA [C16A C50G U55C G63C C70G],0.000129 ± 4.7e-05,0.00119 ± 0.00038,–,–
AUAAAAGCGCCAGAAAUACAGAAAUGUAGUUGGCGAGGAGGAGGUUUAUCGAAUUUUCGGCGGAUGCCUCCAAA [C16A A33G],< 1e-05,–,–,< 1e-05
AUAAAAGCGCCAGAAAUACAGAAAUGUAGUCGACGAGGAGGAGGUUUAUCGAAUUGUCGGCGGAUGCCUCCAAA [C16A U31C U56G],3.96e-05 ± 1.5e-05,9.16e-05 ± 1.9e-05,0.000266 ± 5.4e-05,–
AUAAAAGCGCCAGAGGUACAGAAAUGUAGUUGACGAGGAGGGGGUUUAUCGAAUUUUCGGCGGAUGGCUCCAAA [A15G C16G A42G C67G],7.28e-05 ± 3.4e-05,0.000348 ± 6.7e-05,0.000115 ± 3.5e-05,0.000521 ± 0.00022
AUAAAAGCGCCAGAAAUACAGAAAUGUAGUUGACGAGGAGGAGGUUUAUCGUAUUUUCGGCGGAUGCCUCCAAA [C16A A52U],< 1e-05,–,–,3.13e-05 ± 8.8e-06
AUAAAAGCGCCAGAGGUACAGAAAUGUAGUUGCCGAGGAGGAGGUUUAGCGAUUUUUCGGCGGAUGCCUCCAAA [A15G C16G A33C U49G A53U],< 1e-05,< 1e-05,–,–
AUAAAAGCGCCAGAGCUACAGAAAUGUAGUUGACGAGGAGGAGGUUUAUCGAAUUUUGGGCGGAUGCUUCCAAA [A15G C58G C68U],8.66e-05 ± 3.1e-05,6.1e-05 ± 1.7e-05,5.67e-05 ± 1.6e-05,3.61e-05 ± 1.6e-05
AUAAAAGCGCCAGAAGUACAGAAAUGUAGUUGACGAGGAGGAGGUUUCUCGAAUUUUCGGCUGAUGCCUCCAAA [C16G A48C G62U],< 1e-05,< 1e-05,–,–
AUAAAAGCGCCAGAUCUACAGAAAUGUAGUUGACGCGGAGUAGGUUUAUCGAAUUUUCGGCGGAUGCCUCGAAA [A15U A36C G41U C71G],< 1e-05,< 1e-05,–,–
